According to publication PMC3064781:

How the values were obtained:
scNep1 (Emg1) [1] = target: T1, scNep1 (Emg1) (Saccharomyces cerevisiae, UniProt Q06287 1-252); assay: 1:1 molar mix
scNep1 (Emg1) [2] = target: T1, scNep1 (Emg1); assay: X-ray crystallography

B1: 14-base Nep1 RNA (structured_RNA)
RNA: GGGCUUCAACGCCC
- binding result (scNep1 (Emg1) [1]): binds
- binding result (scNep1 (Emg1) [2]): binds
